These are literature values, as cited in publication PMC7035337.

The target of this data set is vimentin (Homo sapiens) (UniProt P08670).
Chain of vimentin (Homo sapiens) (P08670 2-466): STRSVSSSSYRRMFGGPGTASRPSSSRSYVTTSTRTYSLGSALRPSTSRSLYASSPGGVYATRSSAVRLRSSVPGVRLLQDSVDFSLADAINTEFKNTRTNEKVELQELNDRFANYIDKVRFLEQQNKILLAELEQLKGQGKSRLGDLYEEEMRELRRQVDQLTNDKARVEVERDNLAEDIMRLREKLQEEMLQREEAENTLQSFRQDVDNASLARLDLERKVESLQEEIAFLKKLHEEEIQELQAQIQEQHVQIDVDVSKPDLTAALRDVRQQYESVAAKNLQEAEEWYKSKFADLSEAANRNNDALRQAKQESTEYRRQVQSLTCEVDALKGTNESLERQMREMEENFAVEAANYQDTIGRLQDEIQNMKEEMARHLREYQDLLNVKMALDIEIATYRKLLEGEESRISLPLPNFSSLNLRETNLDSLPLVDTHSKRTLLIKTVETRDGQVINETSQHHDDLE

Chain of envoplakin PRD (Q92817 1822-2014): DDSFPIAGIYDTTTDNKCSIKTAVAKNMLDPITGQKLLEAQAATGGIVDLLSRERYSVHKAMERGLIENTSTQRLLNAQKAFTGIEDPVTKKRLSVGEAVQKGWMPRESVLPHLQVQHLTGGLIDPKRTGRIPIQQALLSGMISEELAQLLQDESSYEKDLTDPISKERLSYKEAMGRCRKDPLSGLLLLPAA

One may read the Kd as the concentration at which binding is half-saturated. Take envoplakin PRD (from UniProt Q92817): the Kd is 19.1 µM.
